The data set is described as follows: label from the status in PepcDB records.
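Note: failed if final PepcDB status was selected cloned or expressed and not failed if soluble or beyond.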

As to “MMNASSISSRFKDLFVTPSIVFDFDGTLAIGHGPVLAYALCVAPEGSKDFLERVRRELRRYDDGQSIYRDGYDIVAKLASELGIDDGTMSVAYGESRKLLGSDLAPVEHVRGIKDILSSLKGHARLVLATNAPENGVHDLLRQWGVADLFDQLHFVVGKPAGLISIISDLQLDGPVLAVGDIYEFDLSPAAQLGADTALVGATATISEAKVSMRGDSIADLPLLAWVSSRVSSS”, the protein production entry was “failed”. With “MMNKPAPRELEVIRSTYITPHMLRITLGGAGLAGFPADQESAYIKLLFPQAGERPLMRTYTIRQQRDDEIDVDFVLHDTDGPASSWAKTAQVGELIQIGGPGLKKLINFEADWFLLAGDMTALPAISVNLAKLPNNAVGYAVIEVLSEADIQPLVHPEHVELHWVINPEADPEGRPLVERIAQLPWLAGEPAVWIACEFNSMRALRRHFKQAHALPKSHFYTSSYWKIGCNEGEHKLVKQEDEQLENGASV”, the protein production result is “not failed”. On to “MMNTKVALKQLMATHFITVDVPCPECGGAMTAWKEPTPDTPPRCPPVCMECGYRSVKKKEATTAKNLYESSLIKKAKDYFLNGSVLTDRKSLHKKISNYYPSNQESTKAKNISMEFCEKTLLGEIHHLILTGGVGVGKSHLAIGCLNEILVKSNYSKKVLFVSYRELLEQLKFAMNDEEARKAITGVAMSEIKAADVVVLDDIGAELGDFNKRDEKGNLILSRASNFDIDTLTGILESRIDKPTIITSNLKSKEIKYCYGERIVSRMATHSNGFMHRFTNTKDYRLKTALEHHHHHH”, for which the protein production entry is reported as “not failed”.

For “MMPPPAVPPQLPEVPAADLPRVRAPLSTYRRPQRTDFVTPTGGPFFAKQDKALNTIDLKMAHDLKLRGYRVKVAVVDEGVRSDHPLLNVEKKYGGDYMADGTRTYPDPKRQGRHGTSVALVLAGQDTDTYRGGVAPNADLYSANIGTRAGHVSDEAAFHAWNDLLGHGIKIFNNSFATEGPEGEQRVKEDRNEYHSAANKQNTYIGRLDRLVRDGALLIFAAGNGRPSGRAYSEVGSVGRTPRVEPHLQRGLIVVTAVDENGRLETWANRCGQAQQWCLAAPSTAYLPGLDKDNPDSIHVEQGTSLSAPLVTGAAVLVQDRFRWMDNDNLRTTLLTTAQDKGPYGVDPQYGWGVLDVGRAVQGPAQFAFGDFVARVTDTSTFGNDISGAGGLVVDGPGALVLAGSNTYAGRTTIKRGTLDVFGSVTSAVTVEPGGTLTGIGTVGTVTNQGTVVNKEAGLHVKGDYSQTAQGLLVTDIGSLLDVSGRASLAGRLHVDDIRPGYVGGDGKSVPVIKAGAVSGVFATLTRSPGLLLNARLDYRPQAVYLTMRRAERVHAAAQRGADDGRRASVLAVAERLDAAMRELDALPESQRDAAAPAAAIGRIQRVQSRKVLQDNLYSLAGATYANAAAVNTLEQNRWMDRLENHLAQAGGERVAAIAEYRHGQLRWRPDGLQGRQRGNGIMLGLAREVSAGLSLAAALTHSRTHWDESSGAPARDNAAMTTPGVLLGARRAWEDGWFVQGALGYSRYRNQATRHISLGDAGHTVGATARGHVWQADAGLGRQWTLAPGHTLAPRAGLQLTHLRQQGFSESGAQGLGLRAHALTRTVPTLWAQLQSRHAFMLGATPMTAQLQLGVWHDLRARRYAASGGFAGLAQDQGASGYWPVPRTRVQGALGLRAEFAPGLVLGLGYTGQLATHWVDHQLSASLTYRY”, the protein production entry was “failed”. Take “MMPPQRSAGTDPEAEHPQYAGQYLLEAALGSGGMGVVHLARSASGLRLAVKVVHAQYAQDPEFRGRFRQEVAAARRVSGAFTAPVVDADPGAGRPWMATLFIPGPTLAEHVKRNGALPPARLRHLMAGLAEALRDIHRAGVVHRDLKPSNVLLAEDGPKVIDFGISRPSDSELRTETGKLIGTPPFMAPEQFRRPREVGPAADVFALGSVIVHAATGSGPFDSDSPYLVAYQVVHDEPDLTGVPEELAELVAGCLAKEPDDRPTPDELMTALRSVSASYDTQAFIPVQRDGSSGSAWRPGPGPGTGPGTGPGPGPGHGGERVVTHQVRQPEPVAAPAARKRLGRRLWIPAVAVAVLACVAGALVLLGPGTGAPREQDAAPSKAAFQPWDIGLSAGGSKATGMAQCAYAPHRLYCTRPGVLAAAVDPADGKVLWSRGDAKRHSDGTVRPPVLSGGLLHVVSEGGKRLAALDPATGKTRWSHDLAAYGGRFAQVGGVVLLTGADARVTALDAATGEEKWRRRIPGQPQPAFVSYGDGLAYAVAAAGSGTKVAAVDPESGATRWQRRFDGVLSLVGAHDGAVWFASTTADSDTDAVVRYDVTRRTVRRVGLRFPLQGAQAVVRKDTVYVLANGGALVAVDTRTSKELWRLETSVSFASAPVAAGDRVYFAGADGRLLAVDASKGVLLGQTKARLGGAHGSLVSGLPSPVAADGKVYSAAPDGSLFAVDARRPGGW”: the protein production entry is “failed”. The value for “MMRCLTITIMFFMFFFLSVIQKCKSETSKSGDYIIYMGAASSDGSTDNDHVELLSSLLQRSGKTPMHRYKHGFSGFAAHLSEDEAHLIAKQPGVLSVFPDQMLQLHTTRSWDFLVQESYQRDTYFTEMNYEQESEMHEGDTIIGFLDSGIWPEAQSFNDRHMGPVPEKWKGTCMRGKKTQPDSFRCNRKLIGARYYNSSFFLDPDYETPRDFLGHGTHVASIAAGQIIANASYYGLASGIMRGGSPSSRIAMYRACSLLGCRGSSILAAFDDAIADGVDVISISMGLWPDNLLEDPLSIGSFHAVERGITVVCSVGNSGPSSQSVFNAAPWMITVAASTIDRGFESNILLGGDENRLIEGFGINIANIDKTQAYPLIHARSAKKIDANEEAARNCAPDTLDQTIVKGKIVVCDSDLDNQVIQWKSDEVKRLGGIGMVLVDDESMDLSFIDPSFLVTIIKPEDGIQIMSYINSTREPIATIMPTRSRTGHMLAPSIPSFSSRGPYLLTRSILKPDIAAPGVNILASWLVGDRNAAPEGKPPPLFNIESGTSMSCPHVSGIAARLKSRYPSWSPAAIRSAIMTTAVQMTNTGSHITTETGEKATPYDFGAGQVTIFGPSSPGLIYETNHMDYLNFLGYYGFTSDQIKKISNRIPQGFACPEQSNRGDISNINYPSISISNFNGKESRRVSRTVTNVASRLIGDEDTVYTVSIDAPEGLLVRVIPRRLHFRKIGDKLSYQVIFSSTTTILKDDAFGSITWSNGMYNVRSPFVVTSKDDNDSER” was “failed”; that for “MMRDSPSIQGTLDAATQHALLAGRHADPFSVLGPHQAGAHTVVRVLAPGARTVMAVLPGGQRTPLLPMQPGLFENTVPGLQPGAPAAYRLCIEWEGGIQHTADPYAFGPVLD” was “failed”. For “MMRFVIGFLLSILASISLVSPANAAVIDHDKVVGFEEVTPTTITQKVAKRFQPYLTVSTGCVPFPAVDADGNTSGGLAPTGPHNGGCSSHIGQVYSRSTWHNGVWAIMYAWYFPKDSPSPGLGHRHDWEGIVVWVDNPANPSPQLLSIAYSQHGNFYNVAPTDRNTREQRPLIRYSHAWPLNHSLWIHDQVGGTQPLIGWDDLTPAARHALNTTDFGAANVPFNDHNFINNLRKAWYRLEHHHHHH”, the protein production entry is “failed”.

Turning to “MMRMKVKVVVNGKEYEVEVEEVMPGKFRVTLEGETYEVETSAGFVTSPKQVQVPTPAPTPAPAPTPTPAPAPSSKTVVSENVVSAPMPGKVLRVLVRVGDRVRVGQGLLVLEAMKMENEIPSPRDGVVKRILVKEGEAVDTGQPLIELG”, the protein production result is given as “not failed”.

Take “MMRPLCFFLLIFLLSGNPVMAAELRPFICVNEKDHLPSLDPQADAWYREAVALAKPDTLRPWDRIVDLYSKAVERGHWKAMHNLASLYRTGWPGGVEKDTQKALDLYQKMIDLKVPQGFYDMAAMIGNRAGVKNPATDGLTFLDKAASLGNPPALTELGRLYIYVAGQDELGLKYTNCAAGQGYAPANYELAMYYRLVAHNYPKAAGYYLLAASQGNDDAAFFMSGVFDKTSPDVDRMWYAPDEKLHKLYDGIYDQLAADPDLRFPNLIKDHPLPPHPTQGYDADRPDWKPGQ”: the protein production entry is recorded as “failed”. The value for “MMRRFKFVVQNITAKIVYTRICMGTIQKIRTDVNVLHAAIHRIEWLFETFSSVCLSFSGGKDSTVLLHLTADVARRKKRRFSVLFIDWEAQYQCTIAHILKMREMYRDVTETFYWVALPLTTVNGVSQFQPEWICWEPGVEWVRQPPDDAITDMSYFPFYRYAMTFEEFVPAFSSWFAGNRCGVAILTGVRADESLNRFMGLVSQRKLRYADDKPWTTASPEGFYYTLYPLYDWKARDIWIYNARTRAIYNPLYDLMYRAGVPLRNMRVCEPFGPEQRKGLWLYHVLEPETWARMCERVSGAASGALYANESGAYFALRKRITKPPHHTWRSYAMFLLDVMPERTAEHYRNKIAVYLRWYQTRGFPDDIPDEQENDLGSRDIPSWRRICKTLIKNDFWCRTLSFSPNKPRHYERYLQRMKERRKEWGIL” was “failed”; that for “MMRSSKIGFRSLAVWPFSLTAFFFFLLHPCVSAQRVYKPEDVPNVQLADSTRLVTDEAGLLSNAQEEVMNGRLRAIRSSHAVEFAVVTLPSIGDAPLEDFTLKLARQWGVGNEKNNNGLLLVLVLDQRRVRFETGYGLEGYLPDGLLSRIIHDRMIPHFRSGNYAEGLSEGVLAVQQVLDGSYDVKPDGGDRSAVSRVSWGTIFIFYCFFMLLASASVLYQLTSYRRQYPRATAVEEYEFLRRRISMLGCVFLLLFPPGFIVVMAIIKSRQNKLKKEMAVCPCCHQHSVHLLDQSLEEDRYLSPSQQMEHKLKSRDFRVYACSSCDHTQIIGYDHPGTSYKRCPNCGTVALRYMGEKRVRTDRGMMIRKEWRCLYCGENHTQEYRDNNDAEAAATGILLGSLLGRGGRSGGFGGGFGGGGFGGGSFGGGGASGGWLEHHHHHH” was “failed”; that for “MMRSVGAVGEPLVVMCVACPRRGGCVVTVVAAAKSCWCRGVSRNLNPGLCPARRVSVRHSGSCILWCGLPSGRVAAVSLPSDPRRFQRIYIEWQSIYLLNMAQQQRMQGQPMIIMGDDAQRVKDRDAQEHNISAARAVADAVRSTLGPKGMDKMLVSSMGDVTVTNDGVTILQEMDIDNPTAEMIVEVAETQEDEAGDGTTTAVAIAGELLKNAEDLLERDIHPTAIIKGYNLAAEQAREEVDNVAVDVDPDDKDLIRSVAETSMTGKGAELDKELLSSIIYDAVNQVAVETNDGGIVVDAANINIETQTGHGVNESQLLRGAAISKDPVHDQMPAAVEDADVLLLNEAIEVEEAEADTSVNIESPDQLQSFLDQEEKQLKEKVQQIADTGANVVFCQKGIDDMAQHYLAKEGILAVRRTKKSDIEFLTNVLDASVVTDLDAASEADVVAGSVTRDSDDELFYVEGESEQAHGVTLLLRGSTDHVVDELERGVSDALDVSAQTLSDGRVLPGGGATEVEVASRLRDFADSVSGREQLAVEAFADSLELVPRVLAENAGLDSIDTLVDLRSAHENDDDEHIGLNVLSGDLEDTFEAGVVEPAHAKEQAVTSASEAANLVLKIDDIISAGDLSTDKGDDDGGAGGMGGGMGGGMGGMM” was “failed”.

For “MMSDLPRDLLEERLSRVPVKSLREARFTCKNWKTLSKKRSFTKKHLAQEATSRESEFKVVMVLHCKVYLTSINLRGIHNGFDPSINRQAKLVSLNGTDQIDISEVYHCDGLLLCISKDYTRVVVWNPYRSQTLWLKPSSPDHRMDWYICAIGYEKRKSSLRYKVLRFVDFAEEEFVEYEIYELKSNSWRVLDVTSDWEVEFYARGVSLKGNTYWFATDKFPEISSNLIHSVYFLLCFNFTSERFGPRLHLPCYPMDVDTVSLSSVREEQLAVLFQRKDNLHMEIWVTTKIEPEEVMWSKLFLAVDMQPLTDFKFGIADASFIIDEEKKVVVVFAKDKDVMYPTHNTAYIIGEDGYYKEVDLGKTTDKIRDPLVCSYVPSSAQIKQGGKRKKKGKLITD”, the protein production result is reported as “failed”. Consider “MMSIKWEQEWDRIYKEQGEVQSEILPTVKVEKDIFKRFGCKKVMDLGCGTGRHTIYLAQNGYQVFAVDISETGIEVTRAKAEKLNLTNIEFAQLDMRNLSVDDNLMDAIMCVWTSGHGTFEDARKNLKEMYRILRLGEILVIDYVSREDENYGKGTEIEKNTFINNVEGEENIPHHYFAKEEIEELYTDFSDVDINPVDYYFTDSYGTRHTIKAFVVIAVK”, for which the protein production entry is “failed”.

The record behind these values is a protein production outcome set (Wang et al. 2014).
